{
  "source": "paper PMC5686073",
  "about": "“Suppression of SRCAP chromatin remodelling complex and restriction of lymphoid lineage commitment by Pcid2” (Nature Communications, 2017)",
  "binders": {"B1": {"name": "GST-ZNHIT1 (Zinc finger HIT-type containing 1) (natural protein, mouse, UniProt Q8R331 1-154, looked up)", "chain": "MVEKKPAVRSQDPGQRRVLDRAARQRRINRQLEALENDNFQDDPHAGLPQLGKRLPQFDDDADTGKKKKKTRGDHFKLRFRKNFQALLEEQNLSASEGPNYLTACAGPPSRPQRPFCAVCGFPSPYTCVSCGARYCTVRCLGTHQETRCLKWTV", "notes": "ZNHIT1 (Zinc finger HIT-type containing 1, p18^hamlet), mouse Znhit1 cloned into pGEX-6P-1; Vector pGEX-6P-1; also called GST-tagged ZNHIT1; p18^hamlet; source: E. coli, purified (Glutathione Sepharose 4B)"}},
  "molecular_target": "T1, His-PCID2 (PCI domain-containing protein 2) (mouse, UniProt Q8BFV2 1-399)",
  "T1 construct": "PCID2 (PCI domain-containing protein 2), mouse full-length Pcid2 subcloned into pETDuet; the plasmid section names only the mouse construct; also called His-tagged PCID2; recombinant PCID2 protein; source: E. coli, purified (Ni-NTA His-resins)",
  "T1 sequence (Q8BFV2 whole entry, the tested form may be a part)": "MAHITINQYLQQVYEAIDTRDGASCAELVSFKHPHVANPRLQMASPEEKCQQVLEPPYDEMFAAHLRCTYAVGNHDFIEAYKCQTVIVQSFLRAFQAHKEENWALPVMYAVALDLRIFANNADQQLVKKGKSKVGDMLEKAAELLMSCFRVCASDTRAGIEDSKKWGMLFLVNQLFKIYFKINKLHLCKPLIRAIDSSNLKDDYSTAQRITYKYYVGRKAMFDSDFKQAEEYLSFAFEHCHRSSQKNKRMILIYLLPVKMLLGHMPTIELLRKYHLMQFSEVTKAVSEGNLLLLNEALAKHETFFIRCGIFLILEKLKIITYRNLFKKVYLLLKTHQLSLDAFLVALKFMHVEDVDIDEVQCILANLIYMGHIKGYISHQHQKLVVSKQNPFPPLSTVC",
  "test": "pull-down; GST-ZNHIT1 incubated with His-PCID2 protein, GST pulldown",
  "details": "both partners purified",
  "data": [
    {"binder": "B1", "values": [
      {"measurement": "binding result", "result": "binds"}
    ]}
  ]
}
